In the supplement of paper PMC10567573 one finds protein stability index data, which are given here for 95 variants.

B1: USP39 (parent)
chain: FVEKNPTIVNFPITNVDLREYLSE
B2: NP_002788.1 (parent)
chain: DGWIRVSSDNVADLHEKYSGSTP

In one series the parent is B1. The experiment in a line: protein stability index of a GFP-peptide fusion (GPS, HEK-293T) (PSI 1-6); higher = more stable. To be noted: c terminus: a fixed tail appended.
For the variant FVYKNPTIVNFPITNVDLREYLSE [E3Y], the protein stability index is 2.21. Take FVAKNPTIVNFPITNVDLREYLSE [E3A]: the protein stability index came out at 1.49.

FVWKNPTIVNFPITNVDLREYLSE [E3W]: the protein stability index turned out to be 1.55. Still for that read-out and setting: with FVPKNPTIVNFPITNVDLREYLSE [E3P] the figure was 2.41; with FVVKNPTIVNFPITNVDLREYLSE [E3V], 2.25; with FVLKNPTIVNFPITNVDLREYLSE [E3L], 1.27. Still for that read-out and setting: with FVSKNPTIVNFPITNVDLREYLSE [E3S] the figure was 3.64; with FVEKNDTIVNFPITNVDLREYLSE [P6D], 2.39; with FVEKNCTIVNFPITNVDLREYLSE [P6C], 2.45.

For the variant FVEKNGTIVNFPITNVDLREYLSE [P6G], the protein stability index was 1.95. Take FVEKNYTIVNFPITNVDLREYLSE [P6Y]: the protein stability index came to 2.82. As to FVEKNFTIVNFPITNVDLREYLSE [P6F], the protein stability index came out at 2.6. Consider FVEKNVTIVNFPITNVDLREYLSE [P6V], for which the protein stability index turned out to be 2.38. Same read-out and setting: then FVEKNKTIVNFPITNVDLREYLSE [P6K], with 2.76.

As for FVEKNQTIVNFPITNVDLREYLSE [P6Q], the protein stability index turned out to be 1.98. With FVEKNSTIVNFPITNVDLREYLSE [P6S], the protein stability index came to 3. As to FVEKNITIVNFPITNVDLREYLSE [P6I], the protein stability index stood at 2.61. The same measure, in the same setting: then FVEKNMTIVNFPITNVDLREYLSE [P6M], with 2.47. With FVEKNLTIVNFPITNVDLREYLSE [P6L], the protein stability index worked out at 1.19. On the same count and under the same terms, then FVEKNNTIVNFPITNVDLREYLSE [P6N], with 2.1.

As to FVEKNATIVNFPITNVDLREYLSE [P6A], the protein stability index was 3.96. For FVEKNTTIVNFPITNVDLREYLSE [P6T], the protein stability index is 2.21. In the case of FVEKNHTIVNFPITNVDLREYLSE [P6H], the protein stability index turned out to be 1.92. Consider FVEKNETIVNFPITNVDLREYLSE [P6E], for which the protein stability index came to 2.21. As for FVEKNRTIVNFPITNVDLREYLSE [P6R], the protein stability index came out at 2.13.

A further series covers variants of B2. The series is described as above. As to conditions: c terminus: native.
With DGWIRVSSDNVADLHEKYSNSTP [G20N], the protein stability index is 3.92. For the variant DGWIRVSSDNVADLHEKYSSSTP [G20S], the protein stability index was 3.44.

On to DGWIRVSSDNVADLHEKYSKSTP [G20K], for which the protein stability index worked out at 3.93.

On to DGWIRVSSDNVADLHEKYSVSTP [G20V], for which the protein stability index was found to be 3.82. On the same count and under the same terms, then DGWIRVSSDNVADLHEKYSLSTP [G20L], with 3.72; and DGWIRVSSDNVADLHEKYSMSTP [G20M], with 3.63; and DGWIRVSSDNVADLHEKYSYSTP [G20Y], with 3.29. Same read-out and setting: then DGWIRVSSDNVADLHEKYSISTP [G20I], with 3.86; and DGWIRVSSDNVADLHEKYSPSTP [G20P], with 3.99. Regarding DGWIRVSSDNVADLHEKYSWSTP [G20W], the protein stability index was determined as 2.9. With DGWIRVSSDNVADLHEKYSRSTP [G20R], the protein stability index came out at 4.17. For the variant DGWIRVSSDNVADLHEKYSQSTP [G20Q], the protein stability index was determined as 3.43.

Take DGWIRVSSDNVADLHEKYSTSTP [G20T]: the protein stability index came to 4.17.

In the case of DGWIRVSSDNVADLHEKYSGSLP [T22L], the protein stability index stood at 2.28. In the case of DGWIRVSSDNVADLHEKYSGSWP [T22W], the protein stability index was determined as 2.81. On the same count and under the same terms, with DGWIRVSSDNVADLHEKYSGSPP [T22P] the figure was 4.85.

For DGWIRVSSDNVADLHEKYSGSQP [T22Q], the protein stability index was 2.78. The same measure, in the same setting: with DGWIRVSSDNVADLHEKYSGSNP [T22N] the figure was 4.05; with DGWIRVSSDNVADLHEKYSGSFP [T22F], 2.12; with DGWIRVSSDNVADLHEKYSGSRP [T22R], 3.98. Still for that read-out and setting: then DGWIRVSSDNVADLHEKYSGSIP [T22I], with 2.31; and DGWIRVSSDNVADLHEKYSGSSP [T22S], with 3.1. For DGWIRVSSDNVADLHEKYSGSGP [T22G], the protein stability index was determined as 2.58. Still for that read-out and setting: with DGWIRVSSDNVADLHEKYSGSMP [T22M] the figure was 2. On the same count and under the same terms, with DGWIRVSSDNVADLHEKYSGSEP [T22E] the figure was 2.64; with DGWIRVSSDNVADLHEKYSGSYP [T22Y], 2.63; with DGWIRVSSDNVADLHEKYSGSHP [T22H], 3.06.

DGWIRVSSDNVADLHEKYSGSVP [T22V]: the protein stability index amounted to 2.46.

As for DGWIRVSSDNVADLHEKYSGSCP [T22C], the protein stability index is 2.36. In the case of DGWIRVSSDNVADLHEKYSGSDP [T22D], the protein stability index turned out to be 2.98.

As to DGWIRVSSDNVADLHEKYSGSAP [T22A], the protein stability index stood at 3.29.

Consider DGWIRVSSDNVADLHEKYSGSKP [T22K], for which the protein stability index was determined as 4.96. Still for that read-out and setting: with DGWIRVSSDNVADLHEKYSGLTP [S21L] the figure was 2.06; with DGWIRVSSDNVADLHEKYSGMTP [S21M], 1.87. Turning to DGWIRVSSDNVADLHEKYSGHTP [S21H], the protein stability index was 2.49. Still for that read-out and setting: with DGWIRVSSDNVADLHEKYSGITP [S21I] the figure was 1.95. As for DGWIRVSSDNVADLHEKYSGATP [S21A], the protein stability index stood at 2.21. Consider DGWIRVSSDNVADLHEKYSGQTP [S21Q], for which the protein stability index turned out to be 3.01. Same read-out and setting: with DGWIRVSSDNVADLHEKYSGETP [S21E] the figure was 4.56; with DGWIRVSSDNVADLHEKYSGNTP [S21N], 1.94. The same measure, in the same setting: with DGWIRVSSDNVADLHEKYSGRTP [S21R] the figure was 2.16; with DGWIRVSSDNVADLHEKYSGGTP [S21G], 3.59; with DGWIRVSSDNVADLHEKYSGTTP [S21T], 2.19. Turning to DGWIRVSSDNVADLHEKYSGPTP [S21P], the protein stability index was 3.5. Still for that read-out and setting: then DGWIRVSSDNVADLHEKYSGFTP [S21F], with 2.16; and DGWIRVSSDNVADLHEKYSGVTP [S21V], with 1.83; and DGWIRVSSDNVADLHEKYSGYTP [S21Y], with 2.26. As to DGWIRVSSDNVADLHEKYSGDTP [S21D], the protein stability index turned out to be 4.54. Same read-out and setting: then DGWIRVSSDNVADLHEKYSGCTP [S21C], with 1.98; and DGWIRVSSDNVADLHEKYSGWTP [S21W], with 3.02; and DGWIRVSSDNVADLHEKYSGKTP [S21K], with 3.06. Regarding DGWIRVSSDNVADLHEKYSGSTD [P23D], the protein stability index was 5.08. Consider DGWIRVSSDNVADLHEKYSGSTI [P23I], for which the protein stability index was 3.13.

DGWIRVSSDNVADLHEKYSGSTY [P23Y]: the protein stability index came to 4.27. The same measure, in the same setting: then DGWIRVSSDNVADLHEKYSGSTA [P23A], with 4.55. Same read-out and setting: with DGWIRVSSDNVADLHEKYSGSTM [P23M] the figure was 3.41. The same measure, in the same setting: then DGWIRVSSDNVADLHEKYSGSTL [P23L], with 3.93. Take DGWIRVSSDNVADLHEKYSGSTN [P23N]: the protein stability index was determined as 4.71. Consider DGWIRVSSDNVADLHEKYSGSTG [P23G], for which the protein stability index amounted to 4.43. With DGWIRVSSDNVADLHEKYSGSTF [P23F], the protein stability index was found to be 4.29.

On to DGWIRVSSDNVADLHEKYSGSTC [P23C], for which the protein stability index came to 4.56.

For DGWIRVSSDNVADLHEKYSGSTE [P23E], the protein stability index amounted to 5.11. Turning to DGWIRVSSDNVADLHEKYSGSTK [P23K], the protein stability index worked out at 5.05. In the case of DGWIRVSSDNVADLHEKYSGSTH [P23H], the protein stability index came to 4.63.

On to DGWIRVSSDNVADLHEKYSGSTS [P23S], for which the protein stability index was 5. The same measure, in the same setting: then DGWIRVSSDNVADLHEKYSGSTQ [P23Q], with 4.78; and DGWIRVSSDNVADLHEKYSGSTT [P23T], with 4.51; and DGWIRVSSDNVADLHEKYSGSTR [P23R], with 3.78.

As to DGWIRVSSDNVADLHEKYSGSTW [P23W], the protein stability index worked out at 3.31. Still for that read-out and setting: with DGWIRVSSDNVADLHEKYSGSTV [P23V] the figure was 4.02.
